Assay results reported in patent US20120178124A1, “STEROL SIDE CHAIN-CLEAVING ENZYME PROTEIN AND USE THEREOF” (MITSUBISHI CHEMICAL CORPORATION, priority 2009, published 2012).

How the values were obtained:
Assay type in all cases: biochemical
[1] = Thermostability test of cell-free extract; conditions: for Relative activity: 140 hr versus 0 hr
Experimental: (§1) To 20 ml of the cell suspension prepared in (2) above, 680 μl of X10 Bug Buster (Novagen), 20 μl of Benzonase (Novagen), and 2 ml of 40 mg/ml lysozyme were added, and the obtained mixture was then shaken at 30° C. for 30 minutes to disintegrate the cells. Thereafter, the reaction solution was centrifuged to obtain the cell-free extract. The obtained, approximately 20 ml of cell-free extract was dialyzed against 1 L of Buffer R (20 mM KPB pH 7.4, 20% glycerol) two times, and the deposited precipitate was then removed by centrifugation. The cell-free extract obtained as a supernatant herein was used in the subsequent experiments.
The cell-free extract prepared in (3) above was conserved at various temperature for 140 hours. The conservation temperature was set at 6° C., 10° C., 20° C., 30° C., 37° C., or 45° C. Using the enzyme protein solution before conservation and the sample obtained after conservation for 140 hours, conversion of 4-cholesten-3-one was carried out, and stability was examined. The reaction solution was prepared, such that 1 ml of the buffer comprised an enzyme protein solution of CYP204A1 or CYPSS that had been conserved at each temperature, 64 μg/ml spinach-derived ferredoxin, 0.1 U/ml spinach-derived ferredoxin reductase protein, 3 U/ml glucose dehydrogenase, 60 mM glucose, 50 μg/ml 4-cholesten-3-one, 2 mM NADH, and 2 mM NADPH. The reaction was initiated by addition of NADH and NADPH, and it was carried out at 200 rpm at 15° C. for 4 hours. Thereafter, 1.5 ml of ethyl acetate was added to the reaction solution to terminate the reaction, and extraction was carried out. Then, extraction was carried out again with 0.75 ml of ethyl acetate. The obtained ethyl acetate phase was solidified using an evaporator, and the residue was then dissolved in 200 μl of methanol. Thereafter, progesterone was detected by HPLC analysis. […] In particular, when the cell-free extract was conversed at 20° C. for 140 hours, CYP204A1 maintained 47% of its activity and CYPSS maintained 39% of its activity.

[2] = pH stability test of cell-free extract; conditions: for Relative activity: 140 hr versus 0 hr, 6° C.; for Activity 0 hr: immediately after mixing, reaction 15° C., 4 hours, pH 7.5
Experimental: as §1
0.5 ml of the cell-free extract prepared in (3) above was mixed with 0.5 ml of 50 mM buffer having various pH values, pH was then measured, and the mixture was then conserved at 6° C. for 140 hours. […] Using the prepared cell-free extracts having various pH values, conversion of 4-cholesten-3-one was carried out. The reaction was carried out, immediately after the enzyme protein solution was mixed with buffers having various pH values and after the mixed solution was conserved for 140 hours, so as to examine the stability. The reaction solution was prepared, such that 1 ml of the buffer comprised an enzyme protein solution of CYP204A1 or CYPSS having various pH values, 64 μg/ml spinach-derived ferredoxin, 0.1 U/ml spinach-derived ferredoxin reductase protein, 3 U/ml glucose dehydrogenase, 60 mM glucose, 50 μg/ml 4-cholesten-3-one, 2 mM NADH, and 2 mM NADPH. To the reaction solution, 562 μl of 200 mM Tris-HCl was added, so as to adjust the reaction solution to pH 7.5. It was confirmed that the reaction solution maintained pH 7.5, even though enzyme protein solutions having various pH values were added thereto. The reaction was initiated by addition of NADH and NADPH, and it was carried out at 200 rpm at 15° C. for 4 hours. Thereafter, 1.5 ml of ethyl acetate was added to the reaction solution to terminate the reaction, and extraction was carried out. Then, extraction was carried out again with 0.75 ml of ethyl acetate. The obtained ethyl acetate phase was solidified using an evaporator, and the residue was then dissolved in 200 μl of methanol. Thereafter, progesterone was detected by HPLC analysis.

[3] = Analysis of the optimum pH, conversion of 4-cholesten-3-one by cell-free extract; conditions: for Specific activity: 4-cholesten-3-one to progesterone, 30° C., 14 hours
Experimental: as §1
Using the cell-free extract prepared in (3) above, conversion of 4-cholesten-3-one was carried out at various pH values. The reaction solution was prepared, such that 1 ml of Buffer R comprised […] CYP204A1 or […] CYPSS204A, 64 μg/ml spinach-derived ferredoxin, a 0.1 U/ml spinach-derived ferredoxin reductase protein, 3 U/ml glucose dehydrogenase, 60 mM glucose, 50 μg/ml 4-cholesten-3-one, 2 mM NADH, and 2 mM NADPH. Then, 562 μl of 200 mM Buffer having various pH values was added to 1 ml of the reaction solution, so as to adjust the pH of the reaction solution. The reaction was initiated by the addition of NADH and NADPH, and it was carried out at 200 rpm at 30° C. for 14 hours. Thereafter, 1.5 ml of ethyl acetate was added to the reaction solution to terminate the reaction, and extraction was carried out. Then, extraction was carried out again with 0.75 ml of ethyl acetate. The obtained ethyl acetate phase was solidified using evaporator, and the residue was then dissolved in 200.d of methanol. Thereafter, progesterone was detected by HPLC analysis. The enzyme protein activity for conversion of 4-cholesten-3-one to progesterone under various pH conditions is shown in Table 1. The enzyme protein activity was indicated by the amount (g) of progesterone generated per hour per mol of P450.

B1: CYP204A1: P450scc from Novosphingobium aromaticivorans ATCC 700278, amino acid sequence SEQ ID NO: 23 (protein)
chain: MARAATAAGNGLPLLDGGVPLLGHLAQFFRDPVSVLKRGYRSKGRLFAMNFMGQRMNVMLGPEHNRFFFEETDKLLSIRESMPFFLKMFSPEFYSFAEMDEYLRQRSIIMPRFKAASMKQYVPVMVEESLNLVERLGEEGEFDLIPTLGPVVMDIAAHSFMGREFHEKLGHEFFELFRDFSGGMEFVLPLWLPTPKMVKSQRAKRKLHAILQSWIDKRRAAPLDPPDFFQTMIETKYPDGRPVPDEIIRHLILLLVWAGHETTAGQVSWALADLLQNPDYQKVLRGEISSLLGGSDGRDLGWEQAVAMEKMDLALRETERLHPVAYMLSRKARADIERDGYVIRKGEFVLLAPSVSHRMEETFRNPDAYDPERFNPANPDAQIESNSLIGFGGGVHRCAGVNFARMEMKVLVAILLQNFDMELMDEVRPIAGASTYWPAQPCRVRYRRRKLDGSEAGADMAALARAAGCPAHT
modifications: Novosphingobium aromaticivorans
Q: With B1 as the molecule, how does the “Activity 140 hr” value ([1]; conserved at 6° C. for 140 hours) read?
A: 4.5 µg/mL

Q: What about the Relative activity ([1]; conserved at 6° C.) of the same molecule?
A: 85%

Q: And the “Activity 140 hr” value ([1]; conserved at 10° C. for 140 hours)?
A: 3.9 µg/mL

Q: What about the Relative activity ([1]; conserved at 10° C.) of the same molecule?
A: 74%

Q: And the “Activity 140 hr” value ([1]; conserved at 20° C. for 140 hours)?
A: 2.5 µg/mL

Q: What about the “Activity 140 hr” value ([1]; conserved at 30° C. for 140 hours) of the same molecule?
A: 0.5 µg/mL

Q: And the Relative activity ([1]; conserved at 30° C.)?
A: 9%

Q: What about the “Activity 140 hr” value ([1]; conserved at 37° C. for 140 hours) of the same molecule?
A: 0 µg/mL

Q: And the Relative activity ([1]; conserved at 37° C.)?
A: 0%

Q: And the “Activity 140 hr” value ([1]; conserved at 45° C. for 140 hours)?
A: 0 µg/mL

Q: What about the Relative activity ([1]; conserved at 45° C.) of the same molecule?
A: 0%

Q: And the “Activity 0 hr” value ([1]; enzyme protein solution before conservation, reaction 15° C., 4 hours)?
A: 5.3 µg/mL

Q: What about the Relative activity ([2]; AcB pH 6.0) of the same molecule?
A: 24%

Q: What about the “Activity 140 hr” value ([2]; AcB pH 6.0, conserved at 6° C. for 140 hours) of the same molecule?
A: 0.5 µg/mL

Q: And the “Activity 0 hr” value ([2]; AcB pH 6.0)?
A: 2.1 µg/mL

Q: What about the Relative activity ([2]; KPB pH 6.7) of the same molecule?
A: 53%

Q: And the “Activity 140 hr” value ([2]; KPB pH 6.7, conserved at 6° C. for 140 hours)?
A: 1 µg/mL

Q: And the “Activity 0 hr” value ([2]; KPB pH 6.7)?
A: 1.9 µg/mL

Q: What about the Relative activity ([2]; KPB pH 7.2) of the same molecule?
A: 65%

Q: And the “Activity 140 hr” value ([2]; KPB pH 7.2, conserved at 6° C. for 140 hours)?
A: 1.3 µg/mL

Q: And the “Activity 0 hr” value ([2]; KPB pH 7.2)?
A: 2 µg/mL

Q: And the Relative activity ([2]; KPB pH 7.6)?
A: 70%

Q: What about the “Activity 140 hr” value ([2]; KPB pH 7.6, conserved at 6° C. for 140 hours) of the same molecule?
A: 1.4 µg/mL

Q: What about the “Activity 0 hr” value ([2]; KPB pH 7.6) of the same molecule?
A: 2 µg/mL

Q: And the “pH at which most stable” value ([2]; KPB, conserved at 6° C. for 140 hours)?
A: 7.6

Q: What about the Relative activity ([2]; TES pH 7.5) of the same molecule?
A: 68%

Q: And the “Activity 140 hr” value ([2]; TES pH 7.5, conserved at 6° C. for 140 hours)?
A: 1.5 µg/mL

Q: And the “Activity 0 hr” value ([2]; TES pH 7.5)?
A: 2.2 µg/mL

Q: What about the Relative activity ([2]; Tris pH 7.4) of the same molecule?
A: 62%

Q: What about the “Activity 140 hr” value ([2]; Tris pH 7.4, conserved at 6° C. for 140 hours) of the same molecule?
A: 1.3 µg/mL

Q: What about the “Activity 0 hr” value ([2]; Tris pH 7.4) of the same molecule?
A: 2.1 µg/mL

Q: And the Relative activity ([2]; Tris pH 8.1)?
A: 50%

Q: What about the “Activity 140 hr” value ([2]; Tris pH 8.1, conserved at 6° C. for 140 hours) of the same molecule?
A: 1 µg/mL

Q: What about the “Activity 0 hr” value ([2]; Tris pH 8.1) of the same molecule?
A: 2 µg/mL

Q: And the Relative activity ([2]; Tris pH 8.9)?
A: 35%

Q: What about the “Activity 140 hr” value ([2]; Tris pH 8.9, conserved at 6° C. for 140 hours) of the same molecule?
A: 0.7 µg/mL

Q: And the “Activity 0 hr” value ([2]; Tris pH 8.9)?
A: 2 µg/mL

Q: And the Specific activity ([3]; KPB pH 6.2)?
A: 0 g/h/mol

Q: What about the Specific activity ([3]; KPB pH 6.7) of the same molecule?
A: 0 g/h/mol

Q: And the Specific activity ([3]; KPB pH 7.1)?
A: 0 g/h/mol

Q: What about the Specific activity ([3]; KPB pH 7.4) of the same molecule?
A: 0 g/h/mol

Q: And the Specific activity ([3]; KPB pH 7.9)?
A: 0 g/h/mol

Q: What about the Specific activity ([3]; TES pH 6.6) of the same molecule?
A: 0 g/h/mol

Q: What about the Specific activity ([3]; TES pH 6.8) of the same molecule?
A: 0 g/h/mol

Q: What about the Specific activity ([3]; TES pH 7.3) of the same molecule?
A: 39 g/h/mol

Q: What about the Specific activity ([3]; TES pH 7.5) of the same molecule?
A: 97 g/h/mol

Q: And the Specific activity ([3]; TES pH 8.0)?
A: 82 g/h/mol

Q: What about the Specific activity ([3]; Tris-HCl pH 7.5) of the same molecule?
A: 207 g/h/mol

Q: What about the Specific activity ([3]; Tris-HCl pH 8.2) of the same molecule?
A: 114 g/h/mol

Q: What about the Specific activity ([3]; Tris-HCl pH 8.7) of the same molecule?
A: 0 g/h/mol

Q: And the “optimum pH (pH of highest activity)” value ([3]; conversion of 4-cholesten-3-one to progesterone)?
A: 7.5
